Molecular target: nine-person peanut-specific IgE antibody pool
Experiment: competitive ELISA inhibition, pooled serum IgE on coated crude peanut

- IC50: 0.4 ng/mL
B1: Ara h 2 (purified from peanut) (protein)
chain: QQWELQGDRRCQSQLERANLRPCEQHLMQKIQRDEDSYERDPYSPSQDPYSPSPYDRRGAGSSQHQERCCNELNEFENNQRCMCEALQQIMENQSDRLQGRQQEQQFKRELRNLPQQCGLRAPQRCDLDVESGGRDRY
modifications: 20% carbohydrate
